The text below walks through data of the supplement of paper PMC10567573.

± gives the standard deviation.

The series in a line: protein stability index of a GFP-peptide fusion (GPS, HEK-293T) (PSI 1-6); higher = more stable.
Where [1] appears, read: treatment: DMSO, c terminus: a fixed tail appended.
Where [2] appears, read: treatment: MLN4924 1 uM, 8 h, c terminus: a fixed tail appended.
Setting [3] is: treatment: DMSO, c terminus: native.
Where [4] appears, read: treatment: MLN4924 1 uM, 8 h, c terminus: native.
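Also: 24-mer peptide tiles fused after GFP, lentivirally expressed, FACS-sorted into six equal bins by GFP/DsRed ratio, decoded by Illumina sequencing, PSI is the read-weighted mean bin number.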

Sequence DPTWIESPKTNGHIENGPFSLEQQ [SRPK2] yielded a protein stability index under setting [1] of 4.78 ± 0.11 and a protein stability index under setting [2] of 4.75 ± 0.22.
Turning to VDRLPGLQGALDLLAVLCVDGSGR [ZSWIM9], the protein stability index reads like this: under setting [1], 2.01 ± 0.34; under setting [2], 2.27 ± 0.24.
Taken in the same sequence, the figures for CGSARPKPYDPPGEKMVAAKVKGE [ATF4] were 4.57 ± 0.17 and 4.82 ± 0.33.
RRAGAACTLRQKLIFSPCSDCEEE [WEE1]: the protein stability index is, setting by setting: under setting [1], 4.2 ± 0.25; under setting [2], 4.39 ± 0.15.
Regarding GRGAVVPGAGLRRPTYTPPSIMPQ [ZBTB22], the protein stability index reads like this: under setting [1], 3.51 ± 0.3; under setting [2], 3.74 ± 0.063.
Taken in the same sequence, the figures for HVTLTLPPTQLEVNLEEIPGEGLL [C2CD2L] were 4.07 ± 0.18 and 3.96 ± 0.42.
For ALIPYVLNPSKLMEKEINGSKVTC [ATL3] the same measures were 2.13 ± 0.2 and 2.2 ± 0.39.
Taken in the same sequence, the figures for VRAKGSQSGRHLQTHSNTIVVSLQ [STX5] were 2.48 ± 0.24 and 2.64 ± 0.075.
QDNNCHFDAALVSFINFFTSVLAT [SLC6A17] displayed a protein stability index under setting [1] of 2.91 ± 0.3 and a protein stability index under setting [2] of 2.75 ± 0.3.
Regarding FSLVLVLDLSKPNDLWPTMENLLQ [DYNC2LI1], the protein stability index reads like this: under setting [1], 2.67 ± 0.51; under setting [2], 2.72 ± 0.41.
For PQELLEWELVVLGKLKWNLAAVTP [CCND2] the same measures were 2.47 ± 0.77 and 2.36 ± 0.57.
For RKDMIAEKLAPSEITEELPSSQLM [ZNF396] the same measures were 4.98 ± 0.16 and 4.86 ± 0.27.
Turning to TRKHYQVTGYGINGTGDSNDFWRI [POMT2], the protein stability index is, setting by setting: under setting [1], 2.34 ± 0.25; under setting [2], 2.32 ± 0.28.
For FYHCSNDDEGDSYSDNPCSCSQSH [SPRY1] the same measures were 4.28 ± 0.076 and 4.31 ± 0.25.
For SKGWGRNYASIIRRDCMWSGFSAR [MYCL], the protein stability index was found to be 2.35 ± 0.39 under setting [1] and 2.38 ± 0.31 under setting [2].
In the case of MGGIMAPKDIMTNTHAKSILNSMN [KLHL12], the protein stability index by setting is: under setting [1], 2.83 ± 0.092; under setting [2], 3.27 ± 0.47.
For LQKDLETRPTQHELRLYKQQVKKL [CEP70] the same measures were 4.19 ± 0.2 and 4.42 ± 0.37.
Taken in the same sequence, the figures for KAMLQLHERGLKLHQTIYNQACKL [INTS4] were 2.23 ± 0.44 and 2.21 ± 0.26.
With LHPFFAGLTPEERSFHTSRNPSR [CLK3], the protein stability index was 2.72 ± 0.38 under setting [3] and 2.73 ± 0.52 under setting [4].
As for PCPSTTCCRACSVSFSTGAGGWSN [BET1L], the protein stability index was determined as 2.27 ± 0.91 under setting [1] and 2.02 ± 0.47 under setting [2].
Turning to WRITNAKGDVEEVQGPGVVGEFPI [FBXO3], the protein stability index runs as follows: under setting [1], 3.75 ± 0.34; under setting [2], 3.84 ± 0.48.
Taken in the same sequence, the figures for NDRMSTRHDGYATNDGNHPSCQET [RBMY1A1] were 5.17 ± 0.19 and 5.22 ± 0.1.
As to VGLIQAAQQLLCDEQAPQRQRLLA [DFFB], the protein stability index turned out to be 3.28 ± 0.12 under setting [1] and 3.19 ± 0.12 under setting [2].
Consider DLNNCKNNLEPILEGYISNLRKQL [KRT71], for which the protein stability index runs as follows: under setting [1], 2.58 ± 0.21; under setting [2], 2.76 ± 0.5.
Regarding KLKESTVRRRYSDFEWLRSELERE [SNX3], the protein stability index stood at 2.99 ± 0.44 under setting [1] and 3.13 ± 0.31 under setting [2].
For ELIGDYSKAFLLQTVDGKHQDLKY [CDC25B] the same measures were 2.41 ± 0.18 and 2.51 ± 0.29.
Taken in the same sequence, the figures for GVRIVSRGRTQLFSLNPRSGSLIT [PCDHGA10] were 2.08 ± 0.2 and 2.21 ± 0.25.
As to FSLTHTHTHTPNHRGINCFFPEL [ANKRD44], the protein stability index came to 2.54 ± 0.56 under setting [3] and 2.76 ± 0.57 under setting [4].
With TPMLNPLIYTLKNAEMKSAMRKLW [OR4A15], the protein stability index is, setting by setting: under setting [1], 2.11 ± 0.32; under setting [2], 2.04 ± 0.16.
